{"source": "paper PMC8481266", "about": "“Structural and functional characterization of the bacterial biofilm activator RemA” (Nature Communications, 2021)", "molecules": {"B1": {"name": "(His)-GB1-tagged (Bs)RemA (natural protein, B. subtilis strain 3610, UniProt Q7WY72 1-89, looked up)", "chain": "MTIKLINIGFGNIISANRMISIVSPESAPIKRMIQDARDRGMLIDATYGRRTRAVVVMDSDHIILSAVQPETVAHRLSVKEEIMDEGQG", "notes": "RemA of Bacillus subtilis strain 3610; MW 9.6 kDa; A TEV cleavage site stands between the solubility tag and RemA; removal of the tag led to precipitation; also called His-GB1-(Bs)RemA; (Bs)RemA (His)-GB1 construct; not shown: His, N-terminal, kept"}}, "key": {"[1]": {"target": "(Gt)RemA, RemA from Geobacillus thermodenitrificans, wild type, with N-terminal His-tag (Geobacillus thermodenitrificans NG-80)", "assay": "crystal structure; sitting-drop crystallisation at 20 °C; X-ray data at ESRF; wild type by Se-SAD, variants by molecular replacement"}, "[2]": {"target": "(Gt)RemA, RemA from Geobacillus thermodenitrificans, wild type, with N-terminal His-tag (Geobacillus thermodenitrificans NG-80)", "assay": "SEC-MALS; analytical SEC-MALS of the two major SEC peaks; (Gt)RemA at 500 µM (Fig. 1b); R18W variant in Supplementary Fig. 1d"}, "[3]": {"target": "(Gt)RemA, RemA from Geobacillus thermodenitrificans, wild type, with N-terminal His-tag (Geobacillus thermodenitrificans NG-80)", "assay": "crystal structure; sitting-drop crystallisation at 20 °C; X-ray data at ESRF; wild type by Se-SAD, variants by molecular replacement", "remark": "listed apart in the source"}, "[4]": {"target": "(Gt)RemA-R18W (Geobacillus thermodenitrificans NG-80)", "assay": "SEC-MALS; analytical SEC-MALS of the two major SEC peaks; (Gt)RemA at 500 µM (Fig. 1b); R18W variant in Supplementary Fig. 1d"}, "[5]": {"target": "(Gt)RemA-R18W (Geobacillus thermodenitrificans NG-80)", "assay": "crystal structure; sitting-drop crystallisation at 20 °C; X-ray data at ESRF; wild type by Se-SAD, variants by molecular replacement"}, "[6]": {"target": "(Gt)RemA-R51A/R53A (Geobacillus thermodenitrificans NG-80)", "assay": "crystal structure; sitting-drop crystallisation at 20 °C; X-ray data at ESRF; wild type by Se-SAD, variants by molecular replacement"}, "[7]": {"target": "(His)-GB1-tagged (Gt)RemA (Geobacillus thermodenitrificans NG-80)", "assay": "SEC; SEC analysis of the (His)-GB1 constructs of (Bs)RemA and (Gt)RemA (Supplementary Figs. 2a, b)"}, "[8]": {"target": "T1, (Gt)RemA-R18W R18W (Geobacillus thermodenitrificans NG-80) (UniProt A4IM41)", "T1 sequence": "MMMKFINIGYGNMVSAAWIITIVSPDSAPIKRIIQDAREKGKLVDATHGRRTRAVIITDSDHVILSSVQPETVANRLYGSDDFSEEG", "assay": "EMSA", "settings": "20 mM HEPES pH 8.0, 1000 mM NaCl, 20 mM MgCl2, 20 mM KCl, 0.3 ug/ml BSA, 25 ug/ml herring sperm DNA, 10% glycerol, 0.25 mg/ml Orange-G; 1 pmol DNA in 14.5 ul …"}, "[9]": {"target": "T2, (Gt)RemA wild type, tag-free (Geobacillus thermodenitrificans NG-80) (UniProt A4IM41)", "T2 sequence": "T1 sequence with W18R", "assay": "EMSA", "settings": "20 mM HEPES pH 8.0, 1000 mM NaCl, 20 mM MgCl2, 20 mM KCl, 0.3 ug/ml BSA, 25 ug/ml herring sperm DNA, 10% glycerol, 0.25 mg/ml Orange-G; 1 pmol DNA in 14.5 ul …"}, "[10]": {"target": "T3, (Gt)RemA wild type, His-tagged (Geobacillus thermodenitrificans NG-80) (UniProt A4IM41)", "T3 sequence": "T1 sequence with W18R", "assay": "EMSA", "settings": "20 mM HEPES pH 8.0, 1000 mM NaCl, 20 mM MgCl2, 20 mM KCl, 0.3 ug/ml BSA, 25 ug/ml herring sperm DNA, 10% glycerol, 0.25 mg/ml Orange-G; 1 pmol DNA in 14.5 ul …"}, "[11]": {"target": "T4, (Gt)RemA-R51A R51A (Geobacillus thermodenitrificans NG-80) (UniProt A4IM41)", "T4 sequence": "T1 sequence with W18R, R51A", "assay": "EMSA", "settings": "20 mM HEPES pH 8.0, 1000 mM NaCl, 20 mM MgCl2, 20 mM KCl, 0.3 ug/ml BSA, 25 ug/ml herring sperm DNA, 10% glycerol, 0.25 mg/ml Orange-G; 1 pmol DNA in 14.5 ul …"}, "[12]": {"target": "T5, (Gt)RemA-R50A R50A (Geobacillus thermodenitrificans NG-80) (UniProt A4IM41)", "T5 sequence": "T1 sequence with W18R, R50A", "assay": "EMSA", "settings": "20 mM HEPES pH 8.0, 1000 mM NaCl, 20 mM MgCl2, 20 mM KCl, 0.3 ug/ml BSA, 25 ug/ml herring sperm DNA, 10% glycerol, 0.25 mg/ml Orange-G; 1 pmol DNA in 14.5 ul …"}, "[13]": {"target": "the molecule itself", "assay": "SEC; SEC analysis of the (His)-GB1 constructs of (Bs)RemA and (Gt)RemA (Supplementary Figs. 2a, b)"}}, "note": "Positions count from the first letter of the chain named. Where “and” joins values, the source holds several entries; their conditions need not be identical. Equal values may be shown once.", "data": [{"molecule": "(Gt)RemA, RemA from Geobacillus thermodenitrificans, wild type, with N-terminal His-tag (natural protein)", "values": [{"measurement": "stoichiometry N", "setting": "[1]", "result": 16}, {"measurement": "stoichiometry N", "setting": "[2]", "result": "16 and 8"}, {"measurement": "stoichiometry N", "setting": "[3]", "result": 8}]}, {"molecule": "(Gt)RemA-R18W (natural protein)", "values": [{"measurement": "stoichiometry N", "setting": "[4]", "result": "14 and 7"}, {"measurement": "stoichiometry N", "setting": "[5]", "result": 7}]}, {"molecule": "(Gt)RemA-R51A/R53A (natural protein)", "values": [{"measurement": "stoichiometry N", "setting": "[6]", "result": 8}]}, {"molecule": "(His)-GB1-tagged (Gt)RemA (natural protein)", "values": [{"measurement": "stoichiometry N", "setting": "[7]", "result": 8}]}, {"molecule": "CTCCTCTATTCCTGTCGTTATTTCGTTCATTATAAGGAATTTTTCGTTCTTTATAAAATTTAAAATAATAAGGGAAGTGCAGTAAATTAGAGGAAAATCATGATTTTGTTCTCCAAAGAGAACTTATTGGCTTATTTTGCAATTTTTAAATAATAACGTTTTCTTTTATAATCCAATCATTAACAGAAAGGGGCGCGGGAAGCCAGCCGCGGGAAGGCTGAAGGCTATGAATACATGAATGAGAATATGAGTTTCAAAGAATTATATGCGATTGTCAGACACAGATTCG (double strand) [PepsA 289 bp fragment]", "values": [{"measurement": "binding", "setting": "[8]", "result": "binds"}, {"measurement": "binding", "setting": "[9]", "result": "binds"}, {"measurement": "binding", "setting": "[10]", "result": "binds"}, {"measurement": "binding", "setting": "[11]", "result": "no binding"}, {"measurement": "binding", "setting": "[12]", "result": "no binding"}]}, {"molecule": "B1", "values": [{"measurement": "stoichiometry N", "setting": "[13]", "result": 8}]}]}
